Changes are numbered by the printed parent chain.
Assays:
Test in all cases: cAMP activity assay (pCRE β-galactosidase reporter), transfected HEK293T cells
Assay type in all cases: cell-based
[1] = molecular target: T1, RXFP1 F54A/Y58A (Homo sapiens, UniProt Q9HBX9, F76A/Y80A); settings: construct F54A/Y58A, ±s.e.m.
T1 construct: cells expressing full-length RXFP1 and mutants; expressed in transfected cells; host or cells: HEK293T
T1 sequence (Q9HBX9 23-757 F76A/Y80A limits assumed): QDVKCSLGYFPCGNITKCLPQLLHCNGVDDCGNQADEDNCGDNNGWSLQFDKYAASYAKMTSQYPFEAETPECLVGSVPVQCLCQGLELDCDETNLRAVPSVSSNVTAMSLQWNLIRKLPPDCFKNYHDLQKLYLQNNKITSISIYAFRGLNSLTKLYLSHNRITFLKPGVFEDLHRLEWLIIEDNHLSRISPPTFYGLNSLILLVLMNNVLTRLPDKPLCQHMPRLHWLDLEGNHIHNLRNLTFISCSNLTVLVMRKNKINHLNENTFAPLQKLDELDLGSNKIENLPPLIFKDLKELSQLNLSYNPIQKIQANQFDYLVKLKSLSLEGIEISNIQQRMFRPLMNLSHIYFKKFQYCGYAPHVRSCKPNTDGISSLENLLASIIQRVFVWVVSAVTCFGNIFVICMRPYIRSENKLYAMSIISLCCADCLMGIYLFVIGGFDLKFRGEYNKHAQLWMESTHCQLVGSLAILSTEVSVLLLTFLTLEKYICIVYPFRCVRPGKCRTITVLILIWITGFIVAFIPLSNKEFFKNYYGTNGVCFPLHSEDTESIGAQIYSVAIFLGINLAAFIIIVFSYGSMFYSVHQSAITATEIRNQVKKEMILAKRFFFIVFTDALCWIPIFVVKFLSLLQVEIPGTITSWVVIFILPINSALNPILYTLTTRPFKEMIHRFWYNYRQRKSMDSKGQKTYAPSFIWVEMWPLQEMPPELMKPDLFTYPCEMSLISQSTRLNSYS
Method: (§1) Media was aspirated and plates stored frozen at −80 °C overnight. […] H2 relaxin dilutions were prepared in minimal media containing 1% DMSO. Positive and negative control stimulations were achieved by incubation with 5 μM Forskolin and minimal media/1% DMSO, respectively. Plates were developed by 10 min of incubation in 25 μl of lysis buffer 1 (100 mM Na2HPO4, pH 8.0, 0.2 mM MgSO4 0.01 mM MnCl2); a further 10 min of incubation in 100 μl of buffer 2 (100 mM Na2HPO4, pH 8.0, 2 mM MgSO4, 0.1 mM MnCl2, 0.5% Triton X-100, 40 mM β-mercaptoethanol); then to each well 25 μl of the β-galactosidase substrate, chlorophenol red-β-D-galactopyranoside (Roche) was added. All incubation steps were conducted with orbital shaking. Color-change was monitored and readings were taken on a Benchmark Plus Microplate Reader (Bio-Rad) at 570 nm. A minimum of three separate experiments were performed, each of them in triplicate, and data were pooled and presented as percentages of the maximum response induced by 5 μM Forskolin±s.e.m.

[2] = molecular target: T2, RXFP1 M60A (Homo sapiens, UniProt Q9HBX9, M82A); settings: construct M60A, ±s.e.m.
T2 construct: cells expressing full-length RXFP1 and mutants; expressed in transfected cells; host or cells: HEK293T
T2 sequence (Q9HBX9 23-757 M82A limits assumed): T1 sequence (Q9HBX9 23-757 F76A/Y80A limits assumed) with A54F, A58Y, M60A
Method: as §1

[3] = molecular target: T3, RXFP1 N43N44-AA (Homo sapiens, UniProt Q9HBX9, N65A/N66A)
T3 construct: transiently transfected human embryonic kidney (HEK) 293T cells expressing full-length RXFP1 and mutants; expressed in transfected cells; host or cells: HEK293T
T3 sequence (Q9HBX9 23-757 N65A/N66A limits assumed): T1 sequence (Q9HBX9 23-757 F76A/Y80A limits assumed) with N43A, N44A, A54F, A58Y
Method: as §1

[4] = percentage of maximum response to 5 μM Forskolin

Question: For “H2 relaxin: two-chain 6-kDa peptide hormone structurally related to insulin; recombinant human gene-2 H2 relaxin provided by Corthera”, which “H2 relaxin pEC50” value ([1]; cAMP reporter) is on record?
Answer: 9.87±0.08 (5)***^,#,θ

Question: What about the “H2 relaxin Emax” value [1, 4] of the same substance?
Answer: 99.94±2.19 (5) %

Question: What about the “H2 relaxin pEC50” value ([2]; cAMP reporter) of the same substance?
Answer: 11.20±0.03 (4)

Question: And the “H2 relaxin Emax” value [2, 4]?
Answer: 118.2±6.51 (4) %

Question: And the “loss of H2 relaxin-stimulated cAMP activity” value ([3]; N43A/N44A RXFP1 versus wild-type RXFP1)?
Answer: 500 fold

Question: And the “H2 relaxin pEC50” value ([3]; construct N43N44-AA, cAMP reporter, ±s.e.m.)?
Answer: 8.29±0.63 (3)

Question: And the “H2 relaxin Emax” value ([3]; construct N43N44-AA, percentage of maximum response to 5 μM Forskolin, ±s.e.m.)?
Answer: 118.90±12.81 (3) %

— PMC4837482, “The complex binding mode of the peptide hormone H2 relaxin to its receptor RXFP1” (Nature Communications, 2016)
